Data from patent publication US20260152567A1 (CSPC MEGALITH BIOPHARMACEUTICAL, published 2026).

How the values were obtained:
[1] = target: T1, cynomolgus monkey full-length CD73 on CHO-K1 cells (cynomolgus monkey, UniProt A0A2K5V5U7 27-549); test: flow cytometry on CHO-K1 cells expressing monkey full-length CD73
T1 construct: whole, on cells; also called monkey CD73 protein expressed on cells; cynomolgus monkey CD73 on cell surface
T1 sequence: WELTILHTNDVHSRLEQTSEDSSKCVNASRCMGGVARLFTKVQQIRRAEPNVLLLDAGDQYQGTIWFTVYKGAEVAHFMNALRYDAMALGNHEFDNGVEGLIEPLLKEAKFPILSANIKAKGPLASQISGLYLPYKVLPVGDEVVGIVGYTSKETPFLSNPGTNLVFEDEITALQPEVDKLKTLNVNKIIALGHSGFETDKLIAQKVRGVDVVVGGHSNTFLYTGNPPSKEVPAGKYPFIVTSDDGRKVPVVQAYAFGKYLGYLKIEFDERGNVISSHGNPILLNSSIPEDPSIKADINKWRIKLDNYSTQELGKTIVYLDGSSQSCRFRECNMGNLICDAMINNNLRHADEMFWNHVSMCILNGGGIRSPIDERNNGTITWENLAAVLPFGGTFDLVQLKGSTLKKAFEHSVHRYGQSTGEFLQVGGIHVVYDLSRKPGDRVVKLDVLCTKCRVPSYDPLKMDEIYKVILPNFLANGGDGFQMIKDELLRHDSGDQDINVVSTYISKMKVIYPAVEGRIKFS
Procedure: In order to characterize the ability of the humanized antibodies prepared in the present application to recognize the cynomolgus monkey CD73 molecule on the cell membrane, CHO-K1 cells capable of stably expressing monkey full-length CD73 were constructed. The cells were seeded in a 96-well plate at a density of 2×10⁶ cells/mL, with 100 μL per well. The plate was washed three times with a PBS buffer, and the supernatant was discarded. The antibodies diluted in a gradient with a PBS buffer were added, and the mixture was incubated at 4° C. for 1 h. The cells were washed 3 times with a PBS buffer, followed by labeling with Alexa Fluor 488-labeled goat anti-human IgG antibody at 4° C. in the dark for 50 min. The cells were then washed 3 times with a PBS buffer, and the fluorescence intensity of the cells was read by a flow cytometer.
As shown in the results in FIG. 5 and Table 10, the prepared humanized antibodies could bind to the monkey CD73 protein expressed on cells in a dose-dependent manner.

[2] = target: T2, human CD73 on the cell surface (MDA-MB-231 and SKOV3 tumor cells) (human, UniProt P21589 27-549); test: flow cytometry on SK-OV-3 cells
T2 construct: whole, on cells; also called cell surface CD73; CD73 on the surface of human tumor cells
T2 sequence (looked up): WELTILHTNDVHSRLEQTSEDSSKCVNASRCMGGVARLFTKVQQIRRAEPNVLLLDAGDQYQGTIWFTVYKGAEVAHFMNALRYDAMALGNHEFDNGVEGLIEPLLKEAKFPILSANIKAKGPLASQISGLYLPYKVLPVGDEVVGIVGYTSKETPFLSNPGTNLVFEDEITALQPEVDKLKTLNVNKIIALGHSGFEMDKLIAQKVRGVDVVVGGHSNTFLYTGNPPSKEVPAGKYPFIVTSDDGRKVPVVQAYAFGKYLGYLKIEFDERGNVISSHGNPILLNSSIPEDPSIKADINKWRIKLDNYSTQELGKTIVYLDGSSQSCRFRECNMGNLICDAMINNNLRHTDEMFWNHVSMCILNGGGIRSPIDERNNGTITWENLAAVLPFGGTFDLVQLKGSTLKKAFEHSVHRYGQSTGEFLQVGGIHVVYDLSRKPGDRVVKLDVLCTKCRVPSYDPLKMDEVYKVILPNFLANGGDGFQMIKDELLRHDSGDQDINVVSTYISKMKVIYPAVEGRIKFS
Procedure: In this example, the exemplary antibodies of the present application were compared with anti-CD73 antibodies described in other patent applications. Antibodies MEDI9447 and Hu101-28 (with CDR sequences from PCT patent applications WO 2016/075099 and WO 2018/137598, respectively) were cloned into eukaryotic expression vectors containing the hIgG1-kappa constant region. The binding ability of the humanized antibodies Hab7C3C2.5 and Hab1F2F9.15 to cell surface CD73 was assessed using tumor cell lines MDA-MB-231 and SKOV3 which endogenously express human CD73 on the cell surface. The cells were seeded in a 96-well plate at a density of 2×10⁶ cells/mL, with 100 μL per well. 4-fold gradient dilutions (0-100 nM) of the antibodies were added, and the mixture was incubated at 4° C. for 1 h. A goat anti-human secondary antibody was added, and the mixture was incubated at 4° C. in the dark for 50 min for labeling. The fluorescence intensity of the cells was then measured by a flow cytometer.

[3] = target: T2, human CD73 on the cell surface …; test: cell-based or functional assay
[4] = target: T3, cynomolgus monkey CD73 protein (cynomolgus monkey, UniProt A0A2K5V5U7 27-547); test: BLI (Fortebio), cynomolgus CD73 on HIS1K biosensors, antibody as analyte
T3 construct: construct not described
T3 sequence: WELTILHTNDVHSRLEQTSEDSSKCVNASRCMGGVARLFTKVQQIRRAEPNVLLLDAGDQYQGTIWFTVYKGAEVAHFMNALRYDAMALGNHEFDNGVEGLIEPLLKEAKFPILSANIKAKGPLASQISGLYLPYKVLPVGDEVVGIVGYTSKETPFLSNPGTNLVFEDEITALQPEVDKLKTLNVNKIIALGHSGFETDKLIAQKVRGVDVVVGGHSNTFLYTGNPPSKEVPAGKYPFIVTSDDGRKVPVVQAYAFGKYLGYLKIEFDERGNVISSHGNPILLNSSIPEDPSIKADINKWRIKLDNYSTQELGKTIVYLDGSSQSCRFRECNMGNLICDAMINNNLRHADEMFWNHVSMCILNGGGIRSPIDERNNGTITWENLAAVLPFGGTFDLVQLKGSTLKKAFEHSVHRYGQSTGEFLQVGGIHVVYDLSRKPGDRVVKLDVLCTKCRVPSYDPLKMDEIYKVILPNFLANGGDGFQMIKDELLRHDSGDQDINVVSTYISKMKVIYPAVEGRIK
Procedure: In this example, the cross-binding ability of the exemplary humanized anti-CD73 antibodies of the present application to cynomolgus monkey CD73 was assayed by a Fortebio experiment. The specific implementation steps included immobilizing the cynomolgus monkey CD73 protein onto HIS1K biosensors. […] The times for the ligand-analyte binding and dissociation were 120 s and 300 s, respectively. The data of the antigen-antibody affinity were calculated by regression according to the binding curves using an analysis software.

B1: Hab1F2F9.15 (antibody, human IgG1, kappa, L234A L235A, V domains shown)
VH: QVQLVQSGAEVKKPGASVKVSCKASGYTFTSYWMHWVRQAPGQRLEWMGNINPSNGGTKYSQKFQGRVTITVDTSASTAYMELSSLRSEDTAVYYCARRDYGSPSYWGQGTTVTVSS
VL: DIQMTQSPSSLSASVGDRVTITCKASQDINSYLTWFQQKPGKAPKSLIYRTNILLDGVPSRFSGSGSGTDYTLTISSLQPEDFATYYCLQYHEFPVTFGGGTKLEIKR
notes: Humanized 1F2F9; also called Huab1F2F9.15; HuablF2F9.15
In the case of B1, the EC50 [1] is reported as 1510 pM, the EC50 [2] is reported as 190 pM and the “Cellular enzymatic activity inhibition IC50” value [3] is reported as 69 pM. The Kd [4] was 814 pM, the koff [4] was 0.0017 s⁻¹ and the kon [4] was 2.09e+06 M⁻¹ s⁻¹.

B2: Hab7C3C2.5 (antibody, human IgG1, kappa, L234A L235A, V domains shown)
VH: QVQLVQSGAEVKKPGASVKVSCKASGYTFTSYDINWVRQATGQGLEWIGWIYPRDGFTKYNEKFKGRVTLTVNTSISTAYMELSSLRSEDTAVYYCARKEGYRGDWYFDVWGQGTTVTVSS
VL: DIQMTQSPSSLSASVGDRVTITCRASGNVHNYLAWYQQKPGKAPKLLLYNAKTLASGVPSRFSGSGSGTDYTLTISSLQPEDFATYYCQHFWSTPWTFGGGTELEIKR
notes: Humanized 7C3C2; also called Hab7C3C.5
B2 was tested, and the EC50 [1] was 11300 pM, the EC50 [2] was 70 pM and the “Cellular enzymatic activity inhibition IC50” value [3] was 27 pM. The Kd [4] was 732 pM, the koff [4] was 0.00299 s⁻¹ and the kon [4] was 4.08e+06 M⁻¹ s⁻¹.
